Measured values as given in the Human Domainome abundance scans (Beltran et al. 2025).

B1: COUP transcription factor 1, residues 83 to 159; numbered along this chain, P10589 (parent)
chain: HIECVVCGDKSSGKHYGQFTCEGCKSFFKRSVRRNLTYTCRANRNCPIDQHHRNQCQYCRLKKCLKVGMRREAVQRG

Variants of: B1
Assay: abundance fitness (aPCA) (normalised: wild type 0, dead -1); higher = more abundant; growth selection in yeast, the domain comes from the species named
Conditions: Homo sapiens

Abundance fitness of substitutions, site by site:
A73: I -0.239, R -0.275, K -0.183, V -0.052, G -0.025, D 0.112, Y -0.061, H 0.038, M -0.065, L -0.04, S -0.02, T -0.034, F 0.02, N 0.064, P -0.11, Q 0.063
V67: Y -0.18, L -0.118, P -0.953, H -0.157, D -0.398, A -0.099, K -0.127, E 0.013, Q 0.036, N -0.125, C -0.088, S -0.117, I -0.093, M 0.099, R -0.16, F -0.115, G -0.26, W -0.325
K66: N 0.058, H -0.103, M 0.055, R -0.021, V 0.041, P -0.785, Q 0.055, Y -0.033, S 0.074, T 0.025, E 0.02, L -0.032, A 0.003, F -0.013, I -0.079, C -0.229, G -0.09
V74: F -0.175, D -0.065, C -0.032, A 0.028, G -0.102, E -0.004
R71: G -0.083, I 0.084, A 0.007, K 0.104, M 0.151, N -0.034, D 0.017, S 0.018, Y 0.089, P 0.023, Q 0.049, C -0.062, H -0.103, F 0.016, L -0.039, V -0.019, T 0.02, W -0.085
L65: F -0.039, V -0.019, H 0.102, Q 0.029, G -0.392, Y -0.069, S -0.472, E 0.06, R -0.497, N -0.322, K -0.342, D 0.015, M -0.069, T -0.133, A -0.228, C -0.265
M69: P -0.661, E -0.723, I -0.484, A -0.943, T -0.719, W -0.629, Y -0.77, G -0.711, C -0.38, D -1.06, S -0.783, L -0.027, Q -0.831, R -0.737, N -0.864, H -1.08
C64: S -0.475, V -0.823, T -0.758, W -0.675, Q -0.8, R -0.908, Y -0.537, L -0.513, M -0.059
G68: E -0.524, F -0.609, H -0.775, C -0.597, Q -0.731, S -0.593, K -0.747, V -0.671, T -0.677, P -0.939, D -0.728, I -0.494, W -0.666, A -0.729, N -0.211, R -0.65, Y -0.436, M -0.624, L -0.572
R70: P -0.161, M 0.173, F 0.002, Y -0.323, N 0.071, K 0.153, D 0.163, V 0.032, C -0.051, H -0.004, A 0.023, G -0.152, E 0.135, I 0.046, S 0.144, L 0.07, Q 0.112, T 0.023
E72: P -0.418, A -0.237, D -0.002, W -0.248, T -0.283, Y -0.177, F -0.316, S -0.252, G -0.258, I -0.325, M -0.262, Q -0.319, C -0.337, L -0.317
